Target: ArPEC25-mCherry (Ascochyta rabiei)
Experiment: FRET or BRET

FRET efficiency: 2.75
Substance: CaβLIM1a-GFP (natural protein)
